Assay results as given in patent publication US20060269997A1 (Genentech, published 2006).

Assays:
KDR (1-3) monomer [1] = biological target: T1, KDR (1-3) monomer (UniProt P35968 20-327, limits assumed, biotin-labeled in the ELISA of Example 8); experiment: competition ELISA: plate coated with VEGF (8-109), 100 pM biotin-labeled KDR(1-3), serial dilutions of the competing VEGF (Example 8)
T1 construct: domain: domains 1 to 3; Genentech reagent; also called domains 1 to 3 of KDR
Protocol: (§1) After 1 hour, the plates were washed, and the bound protein stained with streptavidin horseradish peroxidase conjugate (Pharmacia) and assayed. Affinities were estimated as IC₅₀ values: the concentration of KDR(1-3) or Flt(1-3) that blocked 50% of protein binding.

Flt-1 (1-3) monomer = biological target: T2, Flt-1 (1-3) monomer (UniProt P17948 27-331, limits assumed, biotin-labeled in the ELISA of Example 8); experiment: competition ELISA: plate coated with VEGF (8-109), 100 pM biotin-labeled Flt1(1-3), serial dilutions of the competing VEGF (Example 8)
T2 construct: domain: domains 1 to 3; Genentech reagent; also called Flt(1-3); domains 1 to 3 of Flt-1
Protocol: as §1

KDR (1-3) monomer [2] = biological target: T1, KDR (1-3) monomer; experiment: competition ELISA vs biotinylated VEGF (8-109), soluble KDR (1-3) captured by MAKD5
Protocol: Receptor binding assays were performed in 96-well immunoplates (Maxisorp, Nunc-Immunoplate, Nalge Nunc International, Rochester, N.Y.). Each well was coated with 100 μl of a solution containing 8 μg/ml of a monoclonal antibody to KDR known as MAKD5 (Genentech, South San Francisco, Calif.) in 50 mM carbonate buffer at pH 9.6 and incubated at 4° C. overnight. The supernatant was discarded, the wells were washed three times in washing buffer (0.05% Tween 20 in PBS), and the plate was blocked (150 μl per well) with block buffer (0.5% BSA, 0.01% thimerosal in PBS) at room temperature for one hour. The supernatant was discarded, and the wells were washed.
Aliquots of this mixture (100 μl) were added to the precoated microtiter wells and the plate was incubated for 1 hour at room temperature. […] The wells were then incubated with 3,3′, 5,5′-tetramethyl benzidine (0.2 gram/liter; Kirkegaard & Perry Laboratories, Gaithersburg, Md.) for about 10 minutes at room temperature. Absorbance was read at 450 nm on a Vmax plate reader (Molecular Devices, Menlo Park, Calif.).
Titration curves were fit with a four-parameter nonlinear regression curve-fitting program (KaleidaGraph, Synergy Software, Reading, Pa.).

T2 sequence (P17948 27-331 limits assumed): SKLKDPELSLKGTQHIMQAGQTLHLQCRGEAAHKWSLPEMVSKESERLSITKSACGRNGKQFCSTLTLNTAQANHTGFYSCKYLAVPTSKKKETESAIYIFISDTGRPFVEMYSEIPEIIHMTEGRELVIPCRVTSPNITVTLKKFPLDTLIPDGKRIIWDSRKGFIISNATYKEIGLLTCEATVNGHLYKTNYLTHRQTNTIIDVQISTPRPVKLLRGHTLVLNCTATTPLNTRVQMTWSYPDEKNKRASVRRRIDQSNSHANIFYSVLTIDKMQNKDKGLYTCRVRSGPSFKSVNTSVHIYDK
T1 sequence (P35968 20-327 limits assumed): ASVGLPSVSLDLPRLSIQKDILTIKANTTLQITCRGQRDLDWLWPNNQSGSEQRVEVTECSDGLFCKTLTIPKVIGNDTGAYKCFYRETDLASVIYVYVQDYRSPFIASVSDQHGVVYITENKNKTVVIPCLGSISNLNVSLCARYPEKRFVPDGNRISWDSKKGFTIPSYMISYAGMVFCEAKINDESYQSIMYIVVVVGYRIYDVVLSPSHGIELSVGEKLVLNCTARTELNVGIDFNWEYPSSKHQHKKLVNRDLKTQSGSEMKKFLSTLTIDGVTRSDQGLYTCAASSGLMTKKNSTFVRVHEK

Row | Binder | IC50 (KDR (1-3) monomer [2]) [nM] | Relative Binding Affinity (ratio to native VEGF (8-109)) (KDR (1-3) monomer [2]) [fold] | further results
1 | native VEGF (1-109) (ligand, human, UniProt P15692 207-315, looked up, 125I-labeled where used as tracer) APMAEGGGQNHHEVVKFMDVYQRSYCHPIETLVDIFQEYPDEIEYIFKPSCVPLMRCGGCCNDEGLECVPTEESNITMQIMRIKPHQGQHIGEMSFLQHNKCECRPKKD | – | – | IC50 (KDR (1-3) monomer [1]): 10 nM; IC50 (Flt-1 (1-3) monomer): 6 nM
2 | LK-VRB-19s (ligand, human, UniProt P15692-4 27-135, looked up, one of the two is probably misprinted) APMAEGGGQNHHEVVKFEDVYRRSSCHPIETLVDIFQEYPDEIEYIFKPSCVPLMRCGGCCNSEMRECVPTEESNITMQIMRIKPHQGQHIGEMSFLQHNKCECRPKKD | 7 | 7 | –
3 | Gln 79* (ligand) APMAEGGGQNHHEVVKFMDVYQRSYCHPIETLVDIFQEYPDEIEYIFKPSCVPLMRCGGCCNDEGLECVPTEESNITMAIMRIKPHQGQHIGEMSFLQHNKCECRPKKD | – | – | fold reduction in binding (IC50 variant / IC50 VEGF(1-109)) (KDR (1-3) monomer [1]): 55 fold; fold reduction in binding (IC50 variant / IC50 VEGF(1-109)) (Flt-1 (1-3) monomer): 3 fold
4 | LK-VRB-10s (ligand, human, UniProt P15692-4 27-135, looked up) APMAEGGGQNHHEVVKFMDVYQRSSCHPIETLVDIFQEYPDEIEYIFKPSCVPLMRCGGCCNSEMRECVPTEESNITMQIMRIKPHQGQHIGEMSFLQHNKCECRPKKD | 0.5 | 0.5 | –
5 | LK-VRB-16s (ligand, human, UniProt P15692-4 27-135, looked up) APMAEGGGQNHHEVVKFMDVYRRSSCHPIETLVDIFQEYPDEIEYIFKPSCVPLMRCGGCCNSEMRECVPTEESNITMQIMRIKPHQGQHIGEMSFLQHNKCECRPKKD | 0.6 | 0.6 | –
6 | LK-VRB-24s (ligand, human, UniProt P15692-4 27-135, looked up) APMAEGGGQNHHEVVKFEDVLRRSSCHPIETLVDIFQEYPDEIEYIFKPSCVPLMRCGGCCNSEMLECVPTEESNITMQIMRIKPHQGQHIGEMSFLQHNKCECRPKKD | 10 | 10 | –
7 | LK-VRB-25s (ligand, human, UniProt P15692-4 27-135, looked up) APMAEGGGQNHHEVVKFEDVLRRSSCHPIETLVDIFQEYPDEIEYIFKPSCVPLMRCGGCCNSEGRECVPTEESNITMQIMRIKPHQGQHIGEMSFLQHNKCECRPKKD | 4 | 4 | –
8 | LK-VRB-17s (ligand, human, UniProt P15692-4 27-135, looked up) APMAEGGGQNHHEVVKFEDVLRRSYCHPIETLVDIFQEYPDEIEYIFKPSCVPLMRCGGCCNSEMRECVPTEESNITMQIMRIKPHQGQHIGEMSFLQHNKCECRPKKD | 3 | 3 | –
9 | LK-VRB-12s (ligand, human, UniProt P15692-4 27-135, looked up) APMAEGGGQNHHEVVKFEDVYRRSYCHPIETLVDIFQEYPDEIEYIFKPSCVPLMRCGGCCNSEMRECVPTEESNITMQIMRIKPHQGQHIGEMSFLQHNKCECRPKKD | 0.4 | 0.4 | –
10 | Gln 89 (ligand) APMAEGGGQNHHEVVKFMDVYQRSYCHPIETLVDIFQEYPDEIEYIFKPSCVPLMRCGGCCNDEGLECVPTEESNITMQIMRIKPHQGAHIGEMSFLQHNKCECRPKKD | – | – | fold reduction in binding (IC50 variant / IC50 VEGF(1-109)) (KDR (1-3) monomer [1]): 1 fold; fold reduction in binding (IC50 variant / IC50 VEGF(1-109)) (Flt-1 (1-3) monomer): 1 fold
11 | Glu 64* (ligand) APMAEGGGQNHHEVVKFMDVYQRSYCHPIETLVDIFQEYPDEIEYIFKPSCVPLMRCGGCCNDAGLECVPTEESNITMQIMRIKPHQGQHIGEMSFLQHNKCECRPKKD | – | – | fold reduction in binding (IC50 variant / IC50 VEGF(1-109)) (KDR (1-3) monomer [1]): 10 fold; fold reduction in binding (IC50 variant / IC50 VEGF(1-109)) (Flt-1 (1-3) monomer): 5 fold
12 | LK-VRB-14s (ligand, human, UniProt P15692-4 27-135, looked up) APMAEGGGQNHHEVVKFMDVLRRSYCHPIETLVDIFQEYPDEIEYIFKPSCVPLMRCGGCCNSEMRECVPTEESNITMQIMRIKPHQGQHIGEMSFLQHNKCECRPKKD | 0.5 | 0.5 | –
13 | LK-VRB-21s (ligand, human, UniProt P15692-4 27-135, looked up) APMAEGGGQNHHEVVKFEDVLRRSSCHPIETLVDIFQEYPDEIEYIFKPSCVPLMRCGGCCNSEGLECVPTEESNITMQIMRIKPHQGQHIGEMSFLQHNKCECRPKKD | 3 | 3 | –
14 | Gln 22** (ligand) APMAEGGGQNHHEVVKFMDVYARSYCHPIETLVDIFQEYPDEIEYIFKPSCVPLMRCGGCCNDEGLECVPTEESNITMQIMRIKPHQGQHIGEMSFLQHNKCECRPKKD | – | – | fold reduction in binding (IC50 variant / IC50 VEGF(1-109)) (KDR (1-3) monomer [1]): 6 fold; fold reduction in binding (IC50 variant / IC50 VEGF(1-109)) (Flt-1 (1-3) monomer): 15 fold
15 | LK-VRB-20s (ligand, human, UniProt P15692-4 27-135, looked up) APMAEGGGQNHHEVVKFMDVLRRSSCHPIETLVDIFQEYPDEIEYIFKPSCVPLMRCGGCCNSEMRECVPTEESNITMQIMRIKPHQGQHIGEMSFLQHNKCECRPKKD | 2 | 2 | –
16 | LK-VRB-15s (ligand, human, UniProt P15692-4 27-135, looked up) APMAEGGGQNHHEVVKFMDVLQRSSCHPIETLVDIFQEYPDEIEYIFKPSCVPLMRCGGCCNSEMRECVPTEESNITMQIMRIKPHQGQHIGEMSFLQHNKCECRPKKD | 2 | 2 | –
17 | LK-VRB-26s (ligand, human, UniProt P15692-4 27-135, looked up) APMAEGGGQNHHEVVKFEDVLRRSSCHPIETLVDIFQEYPDEIEYIFKPSCVPLMRCGGCCNDEMRECVPTEESNITMQIMRIKPHQGQHIGEMSFLQHNKCECRPKKD | 23 | 23 | –
18 | LK-VRB-23s (ligand, human, UniProt P15692-4 27-135, looked up) APMAEGGGQNHHEVVKFEDVLRRSSCHPIETLVDIFQEYPDEIEYIFKPSCVPLMRCGGCCNDEGRECVPTEESNITMQIMRIKPHQGQHIGEMSFLQHNKCECRPKKD | 11 | 11 | –
19 | Asp 63** (ligand) APMAEGGGQNHHEVVKFMDVYQRSYCHPIETLVDIFQEYPDEIEYIFKPSCVPLMRCGGCCNAEGLECVPTEESNITMQIMRIKPHQGQHIGEMSFLQHNKCECRPKKD | – | – | fold reduction in binding (IC50 variant / IC50 VEGF(1-109)) (KDR (1-3) monomer [1]): 1 fold; fold reduction in binding (IC50 variant / IC50 VEGF(1-109)) (Flt-1 (1-3) monomer): 8 fold
20 | LK-VRB-13s (ligand, human, UniProt P15692-4 27-135, looked up) APMAEGGGQNHHEVVKFEDVYQRSSCHPIETLVDIFQEYPDEIEYIFKPSCVPLMRCGGCCNSEMRECVPTEESNITMQIMRIKPHQGQHIGEMSFLQHNKCECRPKKD | 14 | 14 | –
21 | Glu 103 (ligand) APMAEGGGQNHHEVVKFMDVYQRSYCHPIETLVDIFQEYPDEIEYIFKPSCVPLMRCGGCCNDEGLECVPTEESNITMQIMRIKPHQGQHIGEMSFLQHNKCACRPKKD | – | – | fold reduction in binding (IC50 variant / IC50 VEGF(1-109)) (KDR (1-3) monomer [1]): 1 fold; fold reduction in binding (IC50 variant / IC50 VEGF(1-109)) (Flt-1 (1-3) monomer): 1 fold
22 | LK-VRB-11s (ligand, human, UniProt P15692-4 27-135, looked up) APMAEGGGQNHHEVVKFEDVLQRSYCHPIETLVDIFQEYPDEIEYIFKPSCVPLMRCGGCCNSEMRECVPTEESNITMQIMRIKPHQGQHIGEMSFLQHNKCECRPKKD | 2 | 2 | –
23 | LK-VRB-22s (ligand, human, UniProt P15692-4 27-135, looked up) APMAEGGGQNHHEVVKFEDVLRRSSCHPIETLVDIFQEYPDEIEYIFKPSCVPLMRCGGCCNDEMLECVPTEESNITMQIMRIKPHQGQHIGEMSFLQHNKCECRPKKD | 4 | 4 | –
24 | Arg 105 (ligand) APMAEGGGQNHHEVVKFMDVYQRSYCHPIETLVDIFQEYPDEIEYIFKPSCVPLMRCGGCCNDEGLECVPTEESNITMQIMRIKPHQGQHIGEMSFLQHNKCECAPKKD | – | – | fold reduction in binding (IC50 variant / IC50 VEGF(1-109)) (KDR (1-3) monomer [1]): 1 fold; fold reduction in binding (IC50 variant / IC50 VEGF(1-109)) (Flt-1 (1-3) monomer): 1 fold
